# Source: paper doi:10.1101/2021.06.09.447696, “A dual allosteric pathway drives human mitochondrial Lon” (bioRxiv, 2021)
# Substitutions are numbered along the chain they refer to. In names and notes the source's numbering stands.
# T1: human mitochondrial Lon, full-length mature form (68-959), wild type (human, UniProt P36776 68-959)
# T1 construct: human mitochondrial LonP1, mature protein, residues 68-959 of UniProt P36776; Homohexamer in the cryo-EM structure; vector pNIC28-Bsa4; also called LonP1; wt-Lon; not shown: His6, N-terminal, cleaved
# T1 sequence (looked up): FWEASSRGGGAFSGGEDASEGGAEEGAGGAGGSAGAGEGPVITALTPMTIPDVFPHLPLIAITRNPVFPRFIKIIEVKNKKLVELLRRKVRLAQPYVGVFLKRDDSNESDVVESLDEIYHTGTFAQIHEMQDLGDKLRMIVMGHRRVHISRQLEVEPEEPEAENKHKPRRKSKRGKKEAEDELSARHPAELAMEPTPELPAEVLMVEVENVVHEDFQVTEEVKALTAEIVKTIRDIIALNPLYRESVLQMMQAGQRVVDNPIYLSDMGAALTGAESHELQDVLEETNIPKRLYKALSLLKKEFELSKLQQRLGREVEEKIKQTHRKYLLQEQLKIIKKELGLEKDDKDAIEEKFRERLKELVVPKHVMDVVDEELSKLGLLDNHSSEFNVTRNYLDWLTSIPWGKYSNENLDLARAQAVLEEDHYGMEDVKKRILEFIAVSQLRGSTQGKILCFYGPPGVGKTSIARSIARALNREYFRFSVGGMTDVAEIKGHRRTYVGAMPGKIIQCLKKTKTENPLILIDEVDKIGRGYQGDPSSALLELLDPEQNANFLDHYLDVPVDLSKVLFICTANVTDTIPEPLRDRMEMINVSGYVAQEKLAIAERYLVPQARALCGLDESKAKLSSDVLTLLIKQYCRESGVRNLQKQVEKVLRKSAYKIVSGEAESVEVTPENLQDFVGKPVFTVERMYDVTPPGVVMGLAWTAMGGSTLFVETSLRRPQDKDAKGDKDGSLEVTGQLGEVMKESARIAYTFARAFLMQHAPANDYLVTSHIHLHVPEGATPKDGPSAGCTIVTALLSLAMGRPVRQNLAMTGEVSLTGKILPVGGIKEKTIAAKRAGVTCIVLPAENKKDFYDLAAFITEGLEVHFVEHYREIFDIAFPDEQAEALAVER
# B1: mitochondrial transcription factor A, mature (amino acids 43-246) (natural protein, UniProt Q00059 43-246, looked up)
# chain: SSVLASCPKKPVSSYLRFSKEQLPIFKAQNPDAKTTELIRRIAQRWRELPDSKKKIYQDAYRAEWQVYKEEISRFKEQLTPSQIMSLEKEIMDKHLKRKAMTKKKELTLLGKPKRPRSAYNVYVAERFQEAKGDSPQEKLKTVKENWKNLSDSEKELYIQHAKEDETRYHNEMKSWEEQMIEVGRKDLLRRTIKKQRKYGAEEC
# notes: mitochondrial transcription factor A (TFAM), mature, amino acids 43-246; also called TFAM; substrate; not shown: His6, N-terminal, cleaved
# B2: human mitochondrial Lon (68-959) G106P, R563W, K594M (enzyme, UniProt P36776 68-959, looked up)
# chain: T1 sequence (looked up) with G39P, R496W, K527M
# notes: human mitochondrial LonP1, mature protein, residues 68-959 of UniProt P36776, with the mutations G106P, R563W and K594M that arose spontaneously on cloning; also called Lon^Apo; substrate-free form of Lon; not shown: His6, N-terminal, cleaved
# B3: human mitochondrial Lon (68-959) K898A (enzyme, UniProt P36776 68-959, looked up)
# chain: T1 sequence (looked up) with K831A
# notes: human mitochondrial LonP1, mature protein, residues 68-959 of UniProt P36776, with K898A; The substrate is trapped as a covalent ester intermediate on S855; also called Lon^K898A; substrate-trapped Lon; not shown: His6, N-terminal, cleaved
# B4: human mitochondrial Lon (68-959) L396A (enzyme, UniProt P36776 68-959, looked up)
# chain: T1 sequence (looked up) with L329A
# notes: human mitochondrial LonP1, mature protein, residues 68-959 of UniProt P36776, with L396A; also called L396A Lon mutant; Lon L396A; not shown: His6, N-terminal, cleaved
# Experiments:
# [1] = target: B3; assay: cryo-EM structure; 0.5-0.7 mg/ml Lon construct in 20 mM HEPES pH 7.5, 100 mM NaCl, 10 mM MgCl2, 3% glycerol, 2 mM ATP added to 0.2 mg/ml TFAM, 30 s at room temperature, then vitrified; single-particle reconstruction; conditions: both partners purified
# [2] = target: T1, human mitochondrial Lon, full-length …; assay: as above; conditions: both partners purified
# [3] = target: the molecule itself; assay: as above
# [4] = target: the molecule itself; assay: SEC; Superose 6 Increase 3.2/300; 25 mM Tris-HCl pH 8.0, 10% glycerol, 1 mM DTT, 50 mM NaCl, 2 mM ATP; protein incubated at 37°C for 10 min with 2 mM ATP and 10 mM MgCl2; fractions analysed by SDS-PAGE
binder,measurement,setting,value
B1,binding result,[1],binds
same,binding result,[2],binds
B2,binding result,[3],binds
B3,stoichiometry N,[3],6
B4,binding result,[4],binds
